In data set [1] the target is T1, SgrAI WT (UniProt Q9F6L0 1-339).
T1 sequence: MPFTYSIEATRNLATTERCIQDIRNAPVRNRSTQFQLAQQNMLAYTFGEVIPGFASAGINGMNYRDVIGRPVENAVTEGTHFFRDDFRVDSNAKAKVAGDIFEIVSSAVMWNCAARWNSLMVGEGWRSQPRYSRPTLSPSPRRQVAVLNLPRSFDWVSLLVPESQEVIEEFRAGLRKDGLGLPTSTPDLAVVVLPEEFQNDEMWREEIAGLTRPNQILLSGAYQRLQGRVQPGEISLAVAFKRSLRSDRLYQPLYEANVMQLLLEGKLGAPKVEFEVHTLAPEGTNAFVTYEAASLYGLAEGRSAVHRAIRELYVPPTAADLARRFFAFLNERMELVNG
Briefly: cryo-EM structure (3.1 A); Mg2+ in sites A and B; filament; DNA cleaved at the scissile phosphate during 1.5 h incubation (product complex); Cryo-EM samples: buffer containing MgCl2, room temperature (30 min for K242A, 1.5 h for WT); full buffer, salt and pH not in the material. The conditions noted are these: protein: recombinant; tags: His tag implied (HisTrap purification); chain copies: 2; blunt.

Data set [2] concerns the target T2, SgrAI K242A (UniProt Q9F6L0 1-339, K242A;L336K).
T2 sequence: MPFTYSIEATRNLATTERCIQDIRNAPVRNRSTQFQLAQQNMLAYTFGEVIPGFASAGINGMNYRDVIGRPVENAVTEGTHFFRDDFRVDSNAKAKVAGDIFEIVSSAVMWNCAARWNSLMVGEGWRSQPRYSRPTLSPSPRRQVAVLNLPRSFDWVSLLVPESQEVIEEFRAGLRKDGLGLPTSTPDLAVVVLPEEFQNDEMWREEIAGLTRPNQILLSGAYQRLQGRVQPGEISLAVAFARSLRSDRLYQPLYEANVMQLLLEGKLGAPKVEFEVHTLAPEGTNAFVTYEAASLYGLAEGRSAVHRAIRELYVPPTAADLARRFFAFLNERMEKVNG
Briefly: cryo-EM structure (3.3 A); Mg2+ in sites A and B; filament; DNA uncleaved; 30 min at room temperature; Cryo-EM samples: buffer containing MgCl2, room temperature (30 min for K242A, 1.5 h for WT); full buffer, salt and pH not in the material. The settings on record: protein: recombinant; tags: His tag implied (HisTrap purification); chain copies: 2; blunt.

B1: 40-1 (dsDNA)
DNA 1: GATGCGTGGGTCTTCACACCGGTGGATGCGTGGGTCTTCA
DNA 2: TGAAGACCCACGCATCCACCGGTGTGAAGACCCACGCATC
For B1, the binding result in data set [1] and in data set [2] was “binds” throughout.

The values are drawn from PMC11367474, “Two-metal ion mechanism of DNA cleavage by activated, filamentous SgrAI”.
